Article doi:10.1101/2020.07.12.199869
Values belong to the molecule of their own block, whether it stands above or below them.

Target: low-density lipoprotein receptor-related protein 1 (mouse (endogenous in bEnd3))
Experiment: proximity ligation

Sequence of low-density lipoprotein receptor-related protein 1 (mouse (endogenous in bEnd3)) (Q91ZX7 20-4545): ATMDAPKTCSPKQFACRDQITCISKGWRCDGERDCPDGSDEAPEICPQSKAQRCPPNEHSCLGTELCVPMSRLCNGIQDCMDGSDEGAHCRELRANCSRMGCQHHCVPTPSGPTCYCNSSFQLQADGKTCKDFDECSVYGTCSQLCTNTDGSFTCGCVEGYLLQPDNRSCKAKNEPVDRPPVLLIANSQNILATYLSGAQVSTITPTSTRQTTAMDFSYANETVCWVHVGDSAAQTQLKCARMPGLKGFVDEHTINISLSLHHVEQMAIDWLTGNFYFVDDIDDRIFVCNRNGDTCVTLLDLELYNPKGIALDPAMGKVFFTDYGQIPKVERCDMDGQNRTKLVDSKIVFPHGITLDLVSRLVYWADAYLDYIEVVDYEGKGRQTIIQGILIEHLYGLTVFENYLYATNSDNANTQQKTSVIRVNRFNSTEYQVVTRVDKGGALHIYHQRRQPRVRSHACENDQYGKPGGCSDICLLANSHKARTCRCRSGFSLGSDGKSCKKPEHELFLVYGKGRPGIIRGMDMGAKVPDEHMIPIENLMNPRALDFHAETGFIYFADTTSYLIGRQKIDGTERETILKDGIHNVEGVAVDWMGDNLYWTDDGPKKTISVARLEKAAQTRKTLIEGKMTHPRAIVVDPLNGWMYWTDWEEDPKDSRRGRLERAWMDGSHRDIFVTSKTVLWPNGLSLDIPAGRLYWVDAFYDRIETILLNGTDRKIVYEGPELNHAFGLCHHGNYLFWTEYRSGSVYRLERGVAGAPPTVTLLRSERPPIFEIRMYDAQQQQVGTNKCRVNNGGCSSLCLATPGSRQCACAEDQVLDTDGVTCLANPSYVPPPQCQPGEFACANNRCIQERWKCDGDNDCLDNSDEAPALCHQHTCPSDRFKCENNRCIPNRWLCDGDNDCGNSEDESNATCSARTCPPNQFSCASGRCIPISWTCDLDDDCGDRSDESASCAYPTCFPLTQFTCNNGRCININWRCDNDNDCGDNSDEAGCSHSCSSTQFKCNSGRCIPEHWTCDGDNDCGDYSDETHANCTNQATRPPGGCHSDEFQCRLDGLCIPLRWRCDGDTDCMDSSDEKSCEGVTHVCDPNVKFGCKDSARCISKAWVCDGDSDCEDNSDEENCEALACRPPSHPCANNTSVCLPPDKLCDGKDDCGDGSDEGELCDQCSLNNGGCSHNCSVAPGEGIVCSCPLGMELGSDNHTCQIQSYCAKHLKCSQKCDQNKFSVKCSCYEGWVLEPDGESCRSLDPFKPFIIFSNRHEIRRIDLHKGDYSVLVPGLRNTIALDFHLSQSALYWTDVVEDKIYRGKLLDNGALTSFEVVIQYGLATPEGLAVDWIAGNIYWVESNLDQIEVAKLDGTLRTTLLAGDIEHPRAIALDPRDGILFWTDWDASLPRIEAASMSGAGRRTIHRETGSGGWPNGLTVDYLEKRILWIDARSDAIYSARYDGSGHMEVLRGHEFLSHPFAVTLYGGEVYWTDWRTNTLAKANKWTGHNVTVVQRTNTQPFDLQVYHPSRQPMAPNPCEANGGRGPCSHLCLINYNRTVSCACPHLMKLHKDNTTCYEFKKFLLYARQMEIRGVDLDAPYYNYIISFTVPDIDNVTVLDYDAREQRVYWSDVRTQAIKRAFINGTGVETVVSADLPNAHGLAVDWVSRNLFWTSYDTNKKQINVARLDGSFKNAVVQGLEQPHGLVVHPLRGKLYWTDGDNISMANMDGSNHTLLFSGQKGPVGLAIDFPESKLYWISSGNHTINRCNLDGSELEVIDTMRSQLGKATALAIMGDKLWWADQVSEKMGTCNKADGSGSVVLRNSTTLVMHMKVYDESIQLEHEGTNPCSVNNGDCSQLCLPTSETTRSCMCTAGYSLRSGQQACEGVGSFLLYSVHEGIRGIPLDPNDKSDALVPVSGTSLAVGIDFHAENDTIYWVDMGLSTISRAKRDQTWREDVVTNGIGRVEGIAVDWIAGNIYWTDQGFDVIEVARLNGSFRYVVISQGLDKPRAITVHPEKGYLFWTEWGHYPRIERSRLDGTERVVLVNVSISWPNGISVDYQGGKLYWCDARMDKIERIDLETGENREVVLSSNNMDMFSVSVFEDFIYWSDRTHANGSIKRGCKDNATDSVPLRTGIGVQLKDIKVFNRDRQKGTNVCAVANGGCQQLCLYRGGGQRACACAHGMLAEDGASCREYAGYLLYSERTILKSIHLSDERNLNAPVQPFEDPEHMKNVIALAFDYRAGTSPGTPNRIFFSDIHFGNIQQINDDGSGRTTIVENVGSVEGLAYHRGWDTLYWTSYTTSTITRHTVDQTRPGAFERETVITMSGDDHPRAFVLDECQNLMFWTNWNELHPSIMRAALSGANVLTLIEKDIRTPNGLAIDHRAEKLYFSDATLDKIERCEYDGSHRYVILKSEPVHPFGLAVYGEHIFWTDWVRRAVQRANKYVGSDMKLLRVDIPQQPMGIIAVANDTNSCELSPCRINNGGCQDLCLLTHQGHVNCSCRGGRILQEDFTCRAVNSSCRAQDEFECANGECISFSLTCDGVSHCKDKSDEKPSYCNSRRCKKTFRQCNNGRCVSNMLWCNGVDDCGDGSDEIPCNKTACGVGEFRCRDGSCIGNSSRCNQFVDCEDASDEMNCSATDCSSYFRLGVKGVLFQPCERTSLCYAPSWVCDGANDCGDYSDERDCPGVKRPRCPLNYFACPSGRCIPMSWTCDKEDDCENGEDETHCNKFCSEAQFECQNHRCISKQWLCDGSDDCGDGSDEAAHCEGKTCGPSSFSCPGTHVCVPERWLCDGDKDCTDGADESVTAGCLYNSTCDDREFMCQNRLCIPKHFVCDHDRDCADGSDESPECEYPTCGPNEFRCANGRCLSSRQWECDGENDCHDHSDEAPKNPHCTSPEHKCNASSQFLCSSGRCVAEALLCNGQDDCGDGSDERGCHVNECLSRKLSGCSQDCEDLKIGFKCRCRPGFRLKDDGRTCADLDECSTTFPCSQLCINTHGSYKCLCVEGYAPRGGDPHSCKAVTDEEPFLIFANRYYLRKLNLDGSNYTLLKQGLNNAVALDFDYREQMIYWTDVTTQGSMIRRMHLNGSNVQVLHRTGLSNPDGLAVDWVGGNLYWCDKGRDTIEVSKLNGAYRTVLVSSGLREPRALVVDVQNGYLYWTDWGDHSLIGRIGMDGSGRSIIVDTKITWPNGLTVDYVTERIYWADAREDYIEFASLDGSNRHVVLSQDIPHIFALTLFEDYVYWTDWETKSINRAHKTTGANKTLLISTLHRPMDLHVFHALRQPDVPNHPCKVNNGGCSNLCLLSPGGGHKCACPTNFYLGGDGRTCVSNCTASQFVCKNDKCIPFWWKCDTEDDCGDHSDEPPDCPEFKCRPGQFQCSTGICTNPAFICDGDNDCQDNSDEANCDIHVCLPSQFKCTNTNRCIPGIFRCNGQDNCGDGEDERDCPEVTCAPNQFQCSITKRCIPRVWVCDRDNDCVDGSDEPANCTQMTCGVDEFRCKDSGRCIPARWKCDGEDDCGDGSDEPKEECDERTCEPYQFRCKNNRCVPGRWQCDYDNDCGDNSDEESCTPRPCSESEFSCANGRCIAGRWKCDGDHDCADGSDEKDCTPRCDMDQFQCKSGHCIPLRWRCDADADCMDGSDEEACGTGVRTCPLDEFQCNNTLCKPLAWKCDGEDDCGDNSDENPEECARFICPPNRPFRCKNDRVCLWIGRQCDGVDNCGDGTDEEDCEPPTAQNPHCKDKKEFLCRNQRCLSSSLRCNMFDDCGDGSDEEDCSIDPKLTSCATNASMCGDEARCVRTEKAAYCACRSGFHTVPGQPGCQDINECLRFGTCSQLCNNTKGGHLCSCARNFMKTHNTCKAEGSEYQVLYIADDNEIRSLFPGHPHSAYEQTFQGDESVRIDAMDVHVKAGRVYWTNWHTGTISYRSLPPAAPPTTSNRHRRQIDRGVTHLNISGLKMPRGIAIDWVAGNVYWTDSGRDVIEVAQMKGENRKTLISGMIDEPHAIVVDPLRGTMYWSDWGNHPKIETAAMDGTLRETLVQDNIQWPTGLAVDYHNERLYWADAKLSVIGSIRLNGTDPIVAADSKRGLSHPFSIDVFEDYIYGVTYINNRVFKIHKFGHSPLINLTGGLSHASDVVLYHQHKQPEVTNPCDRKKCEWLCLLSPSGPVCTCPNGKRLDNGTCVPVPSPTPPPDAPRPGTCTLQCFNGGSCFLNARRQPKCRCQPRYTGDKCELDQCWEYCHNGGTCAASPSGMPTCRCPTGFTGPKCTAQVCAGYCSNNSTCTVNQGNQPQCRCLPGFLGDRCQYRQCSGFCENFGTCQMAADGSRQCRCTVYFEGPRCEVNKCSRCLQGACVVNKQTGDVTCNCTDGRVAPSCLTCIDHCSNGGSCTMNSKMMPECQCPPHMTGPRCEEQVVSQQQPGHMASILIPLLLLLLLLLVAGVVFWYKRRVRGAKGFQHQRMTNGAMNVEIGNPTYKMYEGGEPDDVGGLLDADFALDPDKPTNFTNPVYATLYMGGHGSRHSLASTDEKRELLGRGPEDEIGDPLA

- PLA dots per cell (dots per cell): 250
Molecule: syndapin-2 (from UniProt Q9WVE8 1-486) (natural protein)

- PLA dots per cell (dots per cell): 80
B1: apolipoprotein E (ligand)
chain: EGEPEVTDQLEWQSNQPWEQALNRFWDYLRWVQTLSDQVQEELQSSQVTQELTALMEDTMTEVKAYKKELEEQLGPVAEETRARLGKEVQAAQARLGADMEDLRNRLGQYRNEVHTMLGQSTEEIRARLSTHLRKMRKRLMRDAEDLQKRLAVYKAGAREGAERGVSAIRERLGPLVEQGRQRTANLGAGAAQPLRDRAQAFGDRIRGRLEEVGNQARDRLEEVREHMEEVRSKMEEQTQQIRLQAEIFQARLKGWFEPIVEDMHRQWANLMEKIQASVATNPIITPVAQENQ
